Measured values reported in article PMC9054013, “FCHO controls AP2’s initiating role in endocytosis through a PtdIns(4,5)P2-dependent switch” (Science Advances, 2022).

Assays:
[1] = biological target: T1, AP2 α-appendage (residues 695 to 938) (UniProt P17427 695-938); test: ITC; α-appendage or β2-appendage with C block peptides; 100 mM tris pH 7.4, 150 mM NaCl, 0.25 mM TCEP; 12°C; peptides 1 to 5 mM titrated; conditions: both partners purified
T1 construct: AP2 α subunit (α2), appendage, residues 695 to 938; also called α2 ear; pGEX4T2α-appendage; source: E. coli BL21 plyS, purified (GST beads, thrombin, Superdex 200)

[2] = biological target: T2, Cμ2 (μ2 residues 160 to 435) (UniProt P84092 160-435); test: ITC; Cμ2 with FCHO2 constructs or peptides; 100 mM tris pH 7.4, 150 mM NaCl, 0.25 mM TCEP; 12°C; Nano ITC; conditions: both partners purified
T2 construct: AP2 μ2 subunit, C-terminal subdomain, residues 160 to 435; in the chimera crystals Cμ2 carries an N-terminal His6 tag or a thrombin-cleaved GST tag; also called His6μ2 (residues 160 to 435) wt; isolated Cμ2; source: E. coli BL21 plyS, purified (Ni-NTA, Superdex 200)
T2 sequence (looked up): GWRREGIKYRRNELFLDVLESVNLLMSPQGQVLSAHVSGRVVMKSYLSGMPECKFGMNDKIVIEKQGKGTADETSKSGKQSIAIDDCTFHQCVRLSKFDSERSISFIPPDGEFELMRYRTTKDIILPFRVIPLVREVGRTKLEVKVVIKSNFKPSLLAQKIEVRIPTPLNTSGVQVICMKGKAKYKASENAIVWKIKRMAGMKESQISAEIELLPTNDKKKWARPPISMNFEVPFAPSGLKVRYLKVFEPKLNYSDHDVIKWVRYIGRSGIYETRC

T1 sequence (P17427 695-938): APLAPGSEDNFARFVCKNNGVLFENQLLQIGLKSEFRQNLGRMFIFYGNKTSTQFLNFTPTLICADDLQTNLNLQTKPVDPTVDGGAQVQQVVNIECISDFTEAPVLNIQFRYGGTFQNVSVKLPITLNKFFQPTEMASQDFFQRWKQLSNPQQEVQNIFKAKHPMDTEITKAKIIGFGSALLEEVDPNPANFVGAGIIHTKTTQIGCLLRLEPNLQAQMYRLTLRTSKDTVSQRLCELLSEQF

Binder	Kd [1] [µM]	fold reduction of binding against FCHO2-N1+N2 wild type [2] [fold]
QSEEQVSKNLFGPPAAAAFDHED (peptide, UniProt O14526 426-448, looked up) [FCHO1 C peptide, LES to AAA]	> 500	
FCHO2-N1+N2 EEK mutant (domain or fragment) NIPDVDAAGYSIAPETNQNDTKENHFYSSSDSDSEDEEPKKYRIEIKPMHPNNSHHTMASLDELKVSIGNITLSPAISRHS		5
